From article PMC3458034, “Structure and Flexibility of the C-Ring in the Electromotor of Rotary FoF1-ATPase of Pea Chloroplasts” (PLoS ONE, 2012) come the findings set out here.

The data set concerns the molecule itself. As to the kind of experiment: crystal structure; c-ring from a native preparation in detergent; crystals grown in 100 mM Na-acetate pH 4.5, 50 mM MgCl2, 50 mM NaCl, 10 mM yttrium chloride, 14-24% PEG 550 MME; 3.4 Å.

B1: chloroplast ATP synthase subunit-c of the green pea (Pisum sativum), as the c-ring (natural protein, UniProt P08212 1-81, looked up)
chain: MNPLIAAASVIAAGLAVGLASIGPGVGQGTAAGQAVEGIARQPEAEDKIRGTLLLSLAFMEALTIYGLVVALALLFANPFV
notes: ATP synthase (CFoCF1) subunit c of the chloroplast, Pisum sativum; each monomer is printed as an 81-residue hairpin-shaped polypeptide (TM1 residues 4-41, loop 42-45, TM2 46-75); Native preparation, no tags; Homo-tetradecameric ring in the crystal; also called c-subunit; c14; source: purified from thylakoid membranes of P. sativum var; Alaska young leaves (DDM, PEG precipitation, sucrose …)
For the protein B1, the “stoichiometry N” value was found to be 14.
